{
  "source": "patent US20230212239A1",
  "about": "“INHIBITORS OF CBL AUTOINHIBITION AND RELATED METHODS” (THE HOSPITAL FOR SICK CHILDREN, priority 2020, published 2023)",
  "molecules": {"B1": {"name": "Trx-His(6)-Δlinker-hSLAP2 (human SLAP2 29-261) (other)", "chain": "EAERSKATAVALGSFPAGGPAELSLRLGEPLTIVSEDGDWWTVLSEVSGREYNIPSVHVAKVSHGWLYEGLSREKAEELLLLPGNPGGAFLIRESQTRRGSYSLSVRLSRPASWDRIRHYRIHCLDNGWLYISPRLTFPSLQALVDHYSELADDICCLLKEPCVLQRAGPLPGKDIPLPVTVQRTPLNWKELDSSLLFSEAATGEESLLSEGLRESLSFYISLNDEAVSLDDA", "notes": "also called Trx-His-SLAP2; SLAP2 WT; not shown: N-terminal thioredoxin (Trx)-His(6)-TEV-site tag and linker of the modified pET32a (Δlinker version)"}, "B2": {"name": "pSLAP2: tyrosine phosphorylated SLAP2 expressed in TKB1 cells (protein, UniProt Q9H6Q3 2-261, looked up)", "Src-like-adapter 2": "GSLPSRRKSLPSPSLSSSVQGQGPVTMEAERSKATAVALGSFPAGGPAELSLRLGEPLTIVSEDGDWWTVLSEVSGREYNIPSVHVAKVSHGWLYEGLSREKAEELLLLPGNPGGAFLIRESQTRRGSYSLSVRLSRPASWDRIRHYRIHCLDNGWLYISPRLTFPSLQALVDHYSELADDICCLLKEPCVLQRAGPLPGKDIPLPVTVQRTPLNWKELDSSLLFSEAATGEESLLSEGLRESLSFYISLNDEAVSLDDA", "modifications": "tyrosine phosphorylated", "notes": "tyrosine phosphorylated SLAP2 expressed in TKB1 cells"}},
  "key": {"[1]": {"biological_target": "T1, CBL TKBD (Homo sapiens, UniProt P22681)", "T1 construct": "with CBL (47-357) cloned in frame into MCS2 of the same pETDuet-1 vector; made in house", "T1 sequence (P22681 47-357)": "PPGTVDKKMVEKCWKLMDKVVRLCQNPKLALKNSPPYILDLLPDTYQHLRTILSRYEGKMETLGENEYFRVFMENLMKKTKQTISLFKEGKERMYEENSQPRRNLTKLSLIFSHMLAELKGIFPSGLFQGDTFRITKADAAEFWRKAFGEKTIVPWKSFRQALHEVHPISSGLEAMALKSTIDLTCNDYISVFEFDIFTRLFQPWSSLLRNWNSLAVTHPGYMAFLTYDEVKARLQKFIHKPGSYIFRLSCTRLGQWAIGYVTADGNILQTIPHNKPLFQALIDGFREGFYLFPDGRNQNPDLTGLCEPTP", "experiment": "Co-purification of CBL TKBD with Trx-His-SLAP2/SLAP (Duet co-expression, Ni-NTA, SDS-PAGE)", "type": "binding", "from_the_text": "To validate the CBL/SLAP2 binding interface, a series of mutants in a Duet co-expression vector system was generated for co-purification trials. The SLAP2 sequence was preceded by thioredoxin (Trx) and His-tag fusion proteins to allow co-purification of CBL TKBD that was bound to Trx-His-SLAP2 during the initial affinity chromatography purification step. Surface residues deemed to be important to the CBL/SLAP2 interface, but not CBL function or folding, were mutated to disrupt CBL/SLAP2 binding (FIG. 5C and FIG. 6). In our structure, SLAP2 Gly240 locates close to CBL Met269 and Ala270, such that mutation to a bulky Arg residue (G240R) could cause sterical constraints. Similarly, SLAP2 Leu241 is situated in a hydrophobic cleft composed of CBL Ala223, Trp258, and Val263; mutation to Arg (L241R) was predicted to disturb this binding pocket. Mutation of CBL Ala223 to Arg (A223R) would likewise disrupt this pocket, with CBL/SLAP2 double mutant A223R/L241R predicted to drastically disturb binding through sterical constraints and charge repulsion. (For clarity, CBL mutations herein are indicated in italics, SLAP2 in regular font.) Similarly, single or double mutation of CBL Ser226 or SLAP2 Ser244, whose side chain hydroxyl groups are in close proximity to one another, to charged Glu residues (S226E and S244E) was anticipated to interfere with CBL/SLAP2 binding. Finally, given that SLAP2 binds CBL as an α-helix, mutation of Leu245, located in the center of this α-helix, to proline (L245P) was expected to interrupt the helical structure and thus prevent SLAP2 binding. […] However, double mutation of the CBL/SLAP2 interface (A223R/L241R and S226E/S244E; FIG. 5D, lower panel) was not tolerated, even at low salt concentration.\nFor co-purification of CBL and SLAP2/SLAP, Duet-His-hSLAP2-CBL 29-261 Δ198-229 and 29-254 Δ198-229, Duet-His-Δlinker-hSLAP2-CBL WT and point mutants, and Duet-His-mSLAP-CBL WT and point mutants were overexpressed in E. coli BL-21 as above or TKB1 competent cells (Stratagene) as per manufacturer’s instructions, and cells harvested as above (except 100 mL of LB, overnight at 16-18° C., and 0.35-0.5 mM IPTG induction). Cell pellets were resuspended in either high or low salt (as for high salt except 25 mM HEPEs pH 7.5, 150 mM NaCl) lysis buffer and purified as above on Ni-NTA agarose (Qiagen) with wash buffer (25 mM HEPEs pH 7.5, 150 mM NaCl, 2% glycerol, 20 mM imidazole, 10 mM βME). Bead slurry was mixed with SDS 2X loading buffer (125 mM Tris pH 6.8, 4% SDS, 20% glycerol, 0.715 M βME, bromophenol blue), boiled, and analyzed by 10 or 12.5% SDS-PAGE, stained with Coomassie blue."}, "[2]": {"biological_target": "T2, CBL (47-357) S226E (UniProt P22681 47-357)", "T2 construct": "range 47-357; Point mutant within Duet-His-Δlinker-hSLAP2-CBL; also called S226E (CBL mutant)", "T2 sequence (looked up)": "T1 sequence (P22681 47-357) with S180E", "experiment": "Ni-NTA co-purification from Duet co-expression, high salt (0.5 M NaCl), Coomassie SDS-PAGE", "protocol": "Cell pellets were resuspended in either high or low salt (as for high salt except 25 mM HEPEs pH 7.5, 150 mM NaCl) lysis buffer and purified as above on Ni-NTA agarose (Qiagen) with wash buffer (25 mM HEPEs pH 7.5, 150 mM NaCl, 2% glycerol, 20 mM imidazole, 10 mM βME). Bead slurry was mixed with SDS 2X loading buffer (125 mM Tris pH 6.8, 4% SDS, 20% glycerol, 0.715 M βME, bromophenol blue), boiled, and analyzed by 10 or 12.5% SDS-PAGE, stained with Coomassie blue."}},
  "note": "Numbering of substitutions follows the chain as printed.",
  "data": [
    {"molecule": "B1", "values": [
      {"measurement": "CBL TKBD co-purification", "setting": "[1]; high salt conditions (0.5 M NaCl)", "result": "co-purified"},
      {"measurement": "binding result", "setting": "[2]", "result": "no binding"}
    ]},
    {"molecule": "B2", "values": [
      {"measurement": "CBL TKBD co-purification", "setting": "[1]; conditions where SLAP2 was tyrosine phosphorylated (TKB1), low salt", "result": "co-purified"}
    ]}
  ]
}
